Measurements published in PMC3575483.

Molecular target: Purified native (non-tagged) D. radiodurans DR1245 protein (D. radiodurans)
Assay: SEC; Sephacryl S-300 16/60 HR gel filtration column of purified native DR1245

stoichiometry N: 2
Substance: Purified native (non-tagged) D. radiodurans DR1245 protein (natural protein)
